Measured values from patent US20170204184A1 (CB THERAPEUTICS, published 2017).
Where a chain is given by its changes, count along the chain named. Names and notes keep the numbering of the source. Values belong to the binder of their own block, whether it stands above or below them.

Columns and labels:
PD-L1 on 293T cells [1] = target: T1, PD-L1 on 293T cells (UniProt Q9NZQ7 19-290); assay: flow cytometry on PD-L1-293T cells
T1 construct: whole, on cells; also called PD-L1-293T; 293T-PD-L1 cells
Procedure: Cell binding analyses of anti-PD-L1 antibodies were performed based on binding to a 293T cell line stably expressing PD-L1 (PD-L1-293T). 2×10⁵ 293T-PD-L1 cells were added into each well of 96-well culture plates and incubated with the indicated antibody (20 μg/ml with the dilution of 1:5) at 4° C. for 1 h. After the cells were washed three times with FACS buffer, the secondary antibody (PE Goat anti-mouse: 1:200; PE mouse anti-human: 1:10) was added to the cells at 100 μl/well, and incubated at 4° C. for 40 min. Cells were washed three times with FACS buffer and analyzed by FACS Array.

Human PD-L1 = target: T2, Human PD-L1 (human, UniProt Q9NZQ7 19-238, limits assumed); assay: SPR (Biacore 3000), antibody captured, PD-L1 as analyte, 1:1 fit
T2 construct: also called PD-L1 analyte (Biacore); hPD-L1
Procedure: The binding kinetics between PD-L1 and PD-L1 antibodies were measured by Biacore analysis, which was performed at 25° C. on a Biacore3000 instrument and recorded with a data collection rate of 1 Hz. Polyclonal rabbit anti-mouse IgG (GE, BR-1008-38) was diluted with 10 mM pH 5.0 sodium acetate and immobilized onto reference and experiment flow cells of a CM5 biosensor chip to around 15000 RU using an amine coupling kit (GE, BR10050). […] PD-L1 analyte series were prepared by diluting the stocks with running buffer to 100 nM followed by 2× serial dilution in the same buffer down to 0.78 nM. Analytes were injected in series over the reference and experiment flow cells for 3 minutes at a flow rate of 30 μL/minute. Running buffer (PBS with 0.05% P20) was allowed to flow over for 10 minutes at a flow rate of 30 μL/minute. At the end of each cycle, the biosensor surface was regenerated with 3 minutes injection of 10 mM pH1.7 Glycine-HCl buffer at a flow rate of 10 μL/minute. For each analyte sample injection (i.e. each cycle), binding responses obtained from the experimental biosensor surface were double referenced by subtracting simultaneously recorded responses from the reference surface followed by additional subtraction of responses from a single referenced running buffer sample. The association and dissociation rate constants (ka and kd) were determined simultaneously by fitting double-referenced sensorgrams of the entire titration series to Langmuir model (1:1) using Biaevaluation 4.0 software. The dissociation constant, KD, was calculated from the determined rate constants by the relation KD=kd/ka.

hPD-L1-hFc = target: T3, hPD-L1-hFc (human); assay: ELISA, coated PD-L1-hFc
T3 construct: it may hold a signal peptide ('open reading frame of the extracellular domain'); also called PD-L1-hFc protein; human PD-L1 extracellular domain fused with human Fc tag
Procedure: (§1) ELISA binding analyses were conducted based on human PD-L1-mFc (for chimeric and humanized antibody detection) and PD-L1-hFc protein (for hybridoma antibody detection). 96-well plates (Costar, Cat No: 9018) were coated with 100 μL of 2 μg/ml PD-L1-mFc (Crownbio) in coating buffer PBS (Hyclone, Cat No: SH30256.01B) overnight at 4° C. The wells were aspirated and non-specific binding sites were blocked by adding 200 μL of blocking buffer (PBS with 1% (w/v) of bovine serum albumin (BSA, Roche, Cat No:738328)) and incubating for 1 hour at 37° C. After the plates were washed three times with wash buffer (PBS with 0.05% (v/v) Tween20 (Sigma, Cat No:P1379)), 100 μL/well of 1:10 serial dilutions of hybridoma (FIG. 1), chimeric (FIG. 2), or humanized (FIG. 3) anti-PD-L1 antibodies in blocking buffer (starting from 20 μg/mL) were added and incubated at room temperature for 1 hour. The plates were washed and incubated with 100 μL/well of Goat anti-Mouse IgG (H+L) (Thermo, Cat No: 31432) in blocking buffer for 60 min. After the plates were washed, 100 μL/well of substrate solution TMB (eBioscience, Cat No: 00-4201-56) were added and the plates were incubated for 2 min at room temperature. 100 μL/well of stop solution (2N H₂SO₄) was added to stop the reaction. The colorimetric signals were developed and read at 450 nm using an Auto Plate SpectraMax Plus (Supplier: Moleculer Devices; Model: MNR0643; Software: SoftMax Pro v5.4). Data were analyzed using GraphPad Prism 5 and EC50 was calculated (FIGS. 1-3; Tables 5-7).

[2] = target: T4, biotinylated human PD-L1-mFc (human, biotinylated (sites not given)); assay: competition ELISA: blocks PD-L1-mFc-biotin binding to coated PD-1-hFc
T4 construct: also called PDL-1-mFc-biotin
Procedure: The wells were aspirated and non-specific binding sites were blocked by adding 200 μL of blocking buffer (PBS with 1% (w/v) of bovine serum albumin (BSA, Roche, Cat No:738328)) and incubating for 1 hour at 37° C. After the plate was washed three times with wash buffer (PBS with 0.05% (v/v) Tween20 (Sigma, Cat No:P1379)), 100 μL/well of 1:3 serial dilutions of hybridoma (FIG. 4), chimeric (FIG. 5), or humanized (FIG. 6) anti-PD-L1 antibodies in blocking buffer (starting from 20 μg/mL) were added and incubated at 37° C. for 1 hour. […] After the plate was washed 3 times, secondary antibody (Avidin HRP eBioscience cat No.: E07418-1632, 1:500, 100 μl/well) was added and incubated at 37° C. for 0.5 hour. After the plate was washed, 100 μL/well of substrate solution TMB (eBioscience, Cat No: 00-4201-56) was added and the plate was incubated for 3min at room temperature. 100 μL/well of stop solution (2N H₂SO₄) was added to stop the reaction. The colorimetric signals were developed and read at 450 nm using an Auto Plate SpectraMax Plus (Supplier: Moleculer Devices; Model: MNR0643; Software: SoftMax Pro v5.4). Data were analyzed using GraphPad Prism 5 and IC50 was calculated (FIGS. 4-6; Tables 8-10).

PD-L1 on 293T cells [3] = target: T1, PD-L1 on 293T cells; assay: flow cytometry competition: blocks biotin-labeled PD-1 binding to PD-L1-293T cells
Procedure: Briefly, PD-L1-293T cells were suspended in FACS buffer (PBS with 3% fetal calf serum). Various concentrations of the hybridoma (FIG. 10), chimeric (FIG. 11), or humanized (FIG. 12) anti-PD-L1 antibodies were added to the cell suspension and incubated at 4° C. for 60 minutes in 96 well plates. […] The cells were washed 3 times with PBS and incubated with mouse anti-biotin PE (Biolegend, cat# 409004). The cell-associated fluorescence was then detected by flow cytometry analysis using FACS array.

hPD-L1-mFc = target: T5, hPD-L1-mFc (human); assay: ELISA, coated PD-L1-mFc
T5 construct: it may hold a signal peptide; also called human PD-L1-mFc; PD-L1-mFc (Crownbio)
Procedure: as §1

T1 sequence (Q9NZQ7 19-290 limits assumed): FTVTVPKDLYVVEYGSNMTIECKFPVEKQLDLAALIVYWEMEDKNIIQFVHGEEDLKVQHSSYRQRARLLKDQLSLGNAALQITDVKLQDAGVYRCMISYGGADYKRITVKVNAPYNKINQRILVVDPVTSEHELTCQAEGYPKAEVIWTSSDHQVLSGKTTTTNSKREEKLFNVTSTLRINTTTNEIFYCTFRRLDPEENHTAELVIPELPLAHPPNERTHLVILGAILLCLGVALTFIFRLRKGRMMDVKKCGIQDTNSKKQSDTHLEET
T2 sequence (Q9NZQ7 19-238 limits assumed): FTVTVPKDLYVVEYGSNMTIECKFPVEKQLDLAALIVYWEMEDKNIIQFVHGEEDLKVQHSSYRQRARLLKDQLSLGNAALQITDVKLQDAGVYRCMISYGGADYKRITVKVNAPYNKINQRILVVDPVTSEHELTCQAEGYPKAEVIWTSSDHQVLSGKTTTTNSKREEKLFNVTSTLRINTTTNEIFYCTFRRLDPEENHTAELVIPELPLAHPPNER
T3 sequence (chain, as listed by the source limits assumed): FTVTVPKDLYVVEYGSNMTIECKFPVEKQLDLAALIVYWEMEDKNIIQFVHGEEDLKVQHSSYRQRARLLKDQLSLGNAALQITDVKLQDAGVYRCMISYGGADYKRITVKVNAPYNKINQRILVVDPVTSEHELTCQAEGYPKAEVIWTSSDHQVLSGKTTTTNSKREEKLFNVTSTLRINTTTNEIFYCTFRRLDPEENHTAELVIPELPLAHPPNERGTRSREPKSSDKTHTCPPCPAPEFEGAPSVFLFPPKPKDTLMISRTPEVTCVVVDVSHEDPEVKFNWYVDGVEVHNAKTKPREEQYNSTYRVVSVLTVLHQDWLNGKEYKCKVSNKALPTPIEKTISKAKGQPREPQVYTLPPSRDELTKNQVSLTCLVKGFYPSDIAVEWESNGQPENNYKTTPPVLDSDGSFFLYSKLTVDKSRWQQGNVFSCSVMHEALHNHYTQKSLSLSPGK
T4 sequence (chain, as listed by the source limits assumed): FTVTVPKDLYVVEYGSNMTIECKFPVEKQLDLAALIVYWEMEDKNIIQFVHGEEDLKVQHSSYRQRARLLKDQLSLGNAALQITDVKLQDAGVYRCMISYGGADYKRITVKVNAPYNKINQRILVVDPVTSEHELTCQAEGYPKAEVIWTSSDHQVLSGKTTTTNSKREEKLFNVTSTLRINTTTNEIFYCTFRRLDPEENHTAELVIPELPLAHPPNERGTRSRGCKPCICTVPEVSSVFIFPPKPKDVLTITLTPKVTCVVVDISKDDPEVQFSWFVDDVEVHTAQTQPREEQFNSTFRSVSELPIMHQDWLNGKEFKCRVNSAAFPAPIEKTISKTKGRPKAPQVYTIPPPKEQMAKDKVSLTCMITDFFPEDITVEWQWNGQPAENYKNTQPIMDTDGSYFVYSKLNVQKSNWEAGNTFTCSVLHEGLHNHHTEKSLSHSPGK

B1: m5G11 (antibody, V domains shown)
VH: QVQLKQSGPGLVQPSQSLSITCTVSGFSLTTYGVHWVRQSPGKGLEWLGVIWRGVTTDYNAAFMSRLTITKDNSKSQVFFKMNSLQANDTAIYYCARLGFYAMDYWGQGTSVTVSS
VL: SIVMTQTPKFLLVSAGDRVTITCKASQSVSNDVAWYQQKPGQSPKLLIYYAANRYTGVPDRFTGSGYGTDFTFTISIVQAEDLAVYFCQQDYTSPYTFGGGTKLEIK
notes: Murine hybridoma IgG (printed 'mIgG'); also called 5G11-mIgG; 5G11 murine
EC50 (PD-L1 on 293T cells [1]): 0.0359 µg/mL | Kd (Human PD-L1): 0.19 nM | EC50 (hPD-L1-hFc): 0.0459 µg/mL | IC50 [2]: 0.71 µg/mL | IC50 (PD-L1 on 293T cells [3]): 0.0163 µg/mL

B2: ch5G11 (antibody)
VH: B1 VH
light: SIVMTQTPKFLLVSAGDRVTITCKASQSVSNDVAWYQQKPGQSPKLLIYYAANRYTGVPDRFTGSGYGTDFTFTISIVQAEDLAVYFCQQDYTSPYTFGGGTKLEIKRTVAAPSVFIFPPSDEQLKSGTASVVCLLNNFYPREAKVQWKVDNALQSGNSQESVTEQDSKDSTYSLSSTLTLSKADYEKHKVYACEVTHQGLSSPVTKSFNRGEC
notes: Mouse VH linked to a human constant region
Kd (Human PD-L1): 0.286 nM

B5: ch8C6-hIgG4 (antibody, V domains shown)
VH: B1 VH with T31S, R53S, V55G, T56V, M64I, T68S, T70S
VL: SIVMTQTPKFLLVSAGDRVTITCKASQSVSNDVGWYQQKPGQSPKLLIYYASNRYSGVPDRFTGSGYGTDFTFTISTVQAEDLAVYFCQQDYTSPYTFGGGTKLEIKR
notes: Mouse-human chimeric IgG4 (F234A/L235A), human kappa; also called Chimeric 8C6-IgG4 (F234A/L235A); chimeric 8C6-hIgG4
EC50 (hPD-L1-mFc): 0.076 µg/mL | IC50 [2]: 0.477 µg/mL | IC50 (PD-L1 on 293T cells [3]): 0.0349 µg/mL

More lines, now with the values ahead:

EC50 (PD-L1 on 293T cells [1]): 0.0678 µg/mL | Kd (Human PD-L1): 2.33 nM | EC50 (hPD-L1-hFc): 0.0576 µg/mL | IC50 [2]: 0.868 µg/mL | IC50 (PD-L1 on 293T cells [3]): 0.0291 µg/mL
B3: m4A8 (antibody, V domains shown)
VH: B1 VH with T31S, R53S, V55G, T56I, M64K, T68S, T70S, Y94F
VL: QIVLTQSPAIMSASPGEKVTMTCSANSSVSYMHWYQQKSGTSPKRWIYDTSKLASGVPARFSGSGSGTSYSLTISSMGAEDAATYYCQQWSSNPWTFGGGTKLEIK
notes: Murine hybridoma IgG (printed 'mIgG'); also called 4A8-mIgG; 4A8 murine

EC50 (PD-L1 on 293T cells [1]): 0.041 µg/mL | Kd (Human PD-L1): 1.53 nM | EC50 (hPD-L1-hFc): 0.0182 µg/mL | IC50 [2]: 0.344 µg/mL | IC50 (PD-L1 on 293T cells [3]): 0.0082 µg/mL
B4: m8C6 (antibody, V domains shown)
VH: B1 VH with T31S, R53S, V55G, T56V, M64I, T68S, T70S
VL: B1 VL with A34G, A52S, T56S, I77T
notes: Murine hybridoma IgG (printed 'mIgG'); also called 8C6-mIgG; 8C6 murine

EC50 (PD-L1 on 293T cells [1]): 0.0435 µg/mL | Kd (Human PD-L1): 4.56 nM | EC50 (hPD-L1-hFc): 0.029 µg/mL | IC50 [2]: 0.788 µg/mL | IC50 (PD-L1 on 293T cells [3]): 0.0306 µg/mL
B6: m8H4 (antibody, V domains shown)
VH: EVKLVESGGGLVKPGGSLKLSCAASGFTFRSYGMSWARQIPEKRLEWVASISSGGTTYYLGSVQGRFTISRDNARNILYLQMSSLRSEDTAMYYCARGYDAGFAYWGQGTLVSVSE
VL: DIVLTQSPASLAVSLGQRATISCRASQSVSTSSYSYMHWYQQKPGQPPKLLIKYASNLESGVPARFSGSGSGTDFTLNIHPVEEEDTATYYCQNSWEIPYTFGGGTKLEIK
notes: Murine hybridoma IgG (printed 'mIgG'); also called 8H4-mIgG; 8H4 murine
